Experimental findings from PMC8615271 are described below.

This assay has as its target PDI and ERp72 (human). Briefly: ITC; 280 µM P5 Cys55/58/190/193Ala mutant in the syringe (50 mM HEPES pH 7.2, 150 mM NaCl) titrated into 40 µM PDI or ERp72 in the cell (50 mM HEPES pH 7.2); 30 °C; one set of sites model. On the technique in general: ITC needs no label: the signal is the heat of the interaction.

B1: Catalytically-inactive P5 (Cys55/58/190/193Ala) mutant (enzyme)
chain: LYSSSDDVIELTPSNFNREVIQSDSLWLVEFYAPWAGHAQRLTPEWKKAATALKDVVKVGAVDADKHHSLGGQYGVQGFPTIKIFGSNKNRPEDYQGGRTGEAIVDAALSALRQLVKDRLGGRSGGYSSGKQGRSDSSSKKDVIELTDDSFDKNVLDSEDVWMVEFYAPWAGHAKNLEPEWAAAASEVKEQTKGKVKLAAVDATVNQVLASRYGIRGFPTIKIFQKGESPVDYDGGRTRSDIVSRALDLFSDNAPPPELLEIINEDIAKRTCEEHQLCVVAVLPHILDTGAAGRNSYLEVLLKLADKYKKKMWGWLWTEAGAQSELETALGIGGFGYPAMAAINARKMKFALLKGSFSEQGINEFLRELSFGRGSTAPVGGGAFPTIVEREPWDGRDGELPVEDDIDLSDVELDDLGKDEL
Broadly, the Kd is a measure of binding affinity in units of concentration. Read a low Kd as higher affinity. Regarding B1, the Kd fell in the range of 2.4 to 4.1 µM.
